{"source": "patent US12655409B2", "about": "“Recombinant lysin and its use in the treatment of Gram-negative bacterial infections” (TELUM THERAPEUTICS S.L., priority 2020, dated 2026)", "molecules": {"B1": {"name": "IKB206: fusion of Enterobacter phage Arya putative endolysin (SEQ ID NO:1) and domain D8 of Bacillus amyloliquefaciens phage endolysin (SEQ ID NO:2), without tags (protein)", "chain": "MKTSPNGIAVTKYFESFEARAYPDPATGGKPYTIGFGTTVYPSGAPVRLGDVCTKEQAEKYLQNDLAKFEKIVSDAVRVPLNQGQFDALVSFTYNLGPANLRSSTLLKKLNAGDYAGAAKEFPRWNRANGKVMKGLTRRRAAEQCLFEGMGGASAIERGVAAANSGTPKNVSRGTSSTKTTPKYKVKNGDNLTKIAKKHNTTVATLLKLNPGIKDPNMIRVGQTLNVTGSGGKTHKVKSGDTLSKIAVDNKTTVSKLMNLNPEITNPNHIKVGQTIRLS", "modifications": "Chimeric endolysin (SEQ ID NO1 + SEQ ID NO2)"}}, "key": {"Serratia marcescens": {"system": "Serratia marcescens", "assay": "Enzyme bactericidal activity assay on S. marcescens", "type": "cell-based", "details": "incubation time of 120 min", "method": "(§1) Briefly, the different bacterial cultures were incubated in the specific media (Table 1) at 37° C. or 30° C., according to the strain, until reaching an A600 of 0.3. The cells were then deposited by centrifugation (4500×g, 10 min) and washed twice with the corresponding buffer, with the A600 being adjusted to ≈0.3. A volume of 160 μl of the bacterial suspension was transferred to sterile 96-well plates to which there were added 40 μl of the enzyme under study in a range of doses comprised between 1 and 60 μg mL^−1. The control wells were treated with the same volume of buffer […]. The plates were incubated at 37° C. Samples were taken at different times, serial dilutions performed, and they were seeded in plates containing the specific medium to determine viable bacteria. The experiments were repeated at least 3 times. The bactericidal effect of IKB206 (and its variants) was quantified as the number of logs reduced in the presence of treatment, after a given incubation time (log10 (N0/Ni), where N0=number of CFU mL^−1 before treatment, and Ni=number of CFU mL^−1 after the corresponding incubation time in the presence of each treatment)."}, "Acinetobacter baumannii": {"system": "Acinetobacter baumannii", "assay": "Enzyme bactericidal activity assay on A. baumannii", "type": "cell-based", "method": "as §1, with “A volume of 160 μl of the bacterial suspension was transferred to sterile 96-well plates to which there were added 40 μl of the enzyme under study in a range of doses comprised between 1 and 60 μg mL^−1.” left out"}, "[1]": {"details": "uninfected fish, 1 μg g-1", "method": "The intraperitoneal (IP) route is chosen for an infection model as it is easy and quick to implement, turning this technique into one that is particularly indicated for use in different groups of experimentation animals. One hour after infection with E. coli ATCC 25922, different doses of IKB206 were administered to each of the groups. […] Furthermore, to determine the toxicity of IKB206 in adult fish, assays in which uninfected fish were inoculated with the highest amount of protein used in the efficacy assays (1 μg g-1) were performed."}, "[2]": {"system": "E. coli strain ATCC 25922", "assay": "Stability studies by E. coli bactericidal activity assay", "type": "physicochemical, Escherichia coli", "details": "29 days of storage; −80, −20, 4, 25° C.; glycerol 0 to 10%", "method": "To that end, E. coli strain ATCC 25922 and 15 μg mL^−1 of IKB206 dissolved in different concentrations of glycerol (0, 0.2, 2, 5 and 10%) were used. The assays were carried out at different storage temperatures (−80° C., −20° C., 4° C., 25° C.) and storage times (1, 5, 7, 14, 21 and 29 days)."}, "Pseudomonas aeruginosa": {"system": "Pseudomonas aeruginosa", "assay": "Enzyme bactericidal activity assay on P. aeruginosa", "type": "cell-based", "method": "as §1, with “A volume of 160 μl of the bacterial suspension was transferred to sterile 96-well plates to which there were added 40 μl of the enzyme under study in a range of doses comprised between 1 and 60 μg mL^−1.” left out"}, "[3]": {"system": "E. coli strain ATCC 25922", "assay": "Enzyme bactericidal activity assay on E. coli ATCC 25922", "type": "cell-based, Escherichia coli", "method": "as §1"}, "E. coli ATCC 25922 [4]": {"system": "E. coli ATCC 25922", "assay": "Efficacy assay using a sepsis model in zebrafish", "type": "in vivo", "details": "72 hpi", "method": "Once the minimum lethal dose is determined, the six-month old wild-type zebrafish (1.2 grams) were inoculated intraperitoneally (IP) with a total of 10 μl containing 5.5×10^7 CFU mL^−1 of the bacterium E. coli grown in LB medium. All the experiments were repeated at least three times.\nTo study the protection mediated by the chimera IKB206tags, groups of five (5) six-month old wild-type female zebrafish were infected intraperitoneally (IP) with a lethal dose of the bacterium E. coli (5.5×10^7 CFU). After 1 h, the animals were treated by administering 10 μl of IKB206tags subcutaneously with a dose of 1, 0.5, and 0.25 mg kg-1 of body weight. The fish included in the control group were treated with the buffer in which the protein is dissolved. The animals were observed several times a day and the number of deaths was recorded daily 72 hours post infection (hpi)."}, "Citrobacter freundii": {"system": "Citrobacter freundii", "assay": "Enzyme bactericidal activity assay on C. freundii", "type": "cell-based", "details": "compared with E. coli or K. pneumoniae", "method": "as §1"}, "E. coli ATCC 25922 [5]": {"system": "E. coli ATCC 25922", "assay": "MIC by microdilution in TP-Na 10 mM pH 6.15", "type": "cell-based, Escherichia coli", "method": "The IKB206tags endolysin was purified from the Escherichia coli BL21 (DE3) strain, as previously described.\nCheckerboard tests were assessed by the microdilution method, as previously described (Moody JA 1992, Moellering E G., Jr.1996). […] Each microtiter well contained 100 μl of a E. coli inoculum of 1×10^5 CFUs mL^−1, with or without the corresponding compounds, in a final volume of 200 μl of Sodium phosphate (TP-Na) buffer 10 mM pH 6.15 per well and the plates were incubated at 37° C. for 17 h."}, "human HEK293 cells": {"system": "human HEK293 cells", "assay": "Cytotoxicity assay by means of sulforhodamine B", "type": "cell-based", "details": "50 to 400 μg mL^−1, 48 h", "method": "A seeding test was performed with human HEK293 cells before performing the experiment. To that end, three different cell concentrations were seeded in a 96-well plate in 100 μl of DMEM medium+10% Fetal Bovine Serum (FBS). These cells were incubated at 37° C. and 5% CO2 for 72 h, monitoring growth. The initial cell concentration showing 80% confluence at 72 h was selected for the further assays, which in this case was 7000 cells/well. Twenty-four hours after seeding the cells, another 100 μl of medium with the concentrations of purified protein IKB206tags to be tested was added. In this case, 400 μg mL^−1, 200 μg mL^−1, 100 μg mL^−1, and 50 μg mL^−1. The assays were performed in quadruplicate. As controls, the cells were incubated only with culture media and with the buffer in which the protein is dissolved (vehicle control). Buffer volume added as a vehicle control was the same volume of the highest protein concentration. The plate was left to incubate for another 48 h. The results were obtained by means of fixing the cells by adding 50 μl of 50% cold trichloroacetic acid (TCA) per well and leaving the plate to incubate for 1 h at room temperature. After discarding the TCA, the plate was washed with distilled water and 40 μl of 0.4% sulforhodamine B (SRB) were added. […] The results were read in Cytation (Bioteck, USA) at an absorbance of 510 nm."}, "[6]": {"system": "E. coli strain DSM 17076 with serotype O157: H7", "assay": "Enzyme bactericidal activity assay on E. coli serotype O157:H7", "type": "cell-based, Escherichia coli", "details": "15 μg mL^−1", "method": "as §1"}, "Klebsiella pneumoniae": {"system": "Klebsiella pneumoniae", "assay": "Enzyme bactericidal activity assay on K. pneumoniae", "type": "cell-based", "method": "as §1, with “A volume of 160 μl of the bacterial suspension was transferred to sterile 96-well plates to which there were added 40 μl of the enzyme under study in a range of doses comprised between 1 and 60 μg mL^−1.” left out"}, "[7]": {"system": "strains from S. xylosus, E. avium, E. faecium and E. faecalis", "assay": "Enzyme bactericidal activity assay on strains of chicken microbiota", "type": "cell-based", "details": "15 μg mL^−1", "method": "as §1"}}}
{"molecule": "B1", "values": [{"measurement": "bactericidal effect", "setting": "Serratia marcescens", "value": "~3", "unit": "logarithms"}, {"measurement": "bactericidal activity", "setting": "Acinetobacter baumannii; 15 μg mL^−1, 120 min", "value": "bactericidal activity"}, {"measurement": "killing of the cells present in the assay", "setting": "Acinetobacter baumannii; 150 μg mL-1, 120 min", "value": "capable of killing all the cells present in the assay"}, {"measurement": "reductions in CFU/mL", "setting": "Acinetobacter baumannii; 15 or 150 μg mL^−1", "value": "more than 4 logs"}, {"measurement": "toxicity in adult fish versus protein buffer", "setting": "[1]", "value": "no differences"}, {"measurement": "stability (bactericidal activity after storage)", "setting": "[2]", "value": "still fully active"}, {"measurement": "bactericidal activity", "setting": "Pseudomonas aeruginosa; 15 μg mL^−1, 120 min", "value": "bactericidal activity"}, {"measurement": "killing of the cells present in the assay", "setting": "Pseudomonas aeruginosa; 150 μg mL-1, 120 min", "value": "capable of killing all the cells present in the assay"}, {"measurement": "reductions in CFU/mL", "setting": "Pseudomonas aeruginosa; 15 or 150 μg mL^−1", "value": "more than 4 logs"}, {"measurement": "reduction in CFU mL^−1", "setting": "[3]; 5 μg mL^−1, 15 min of incubation", "value": "significantly reducing"}, {"measurement": "incubation time for killing the entire culture", "setting": "[3]; 15 μg mL^−1", "value": 30, "unit": "min"}, {"measurement": "reduction of the number of CFU mL^−1", "setting": "[3]; 15 μg mL^−1, 5 minutes of incubation", "value": "significantly reducing"}, {"measurement": "bactericidal effect (log reduction)", "setting": "[3]; 15 μg mL^−1, 15 minutes of incubation", "value": "more than 3 log"}, {"measurement": "reduction of the bacterial suspension", "setting": "[3]; 15 μg mL^−1, 30 min of incubation", "value": 5, "unit": "log"}, {"measurement": "incubation time for killing the entire culture", "setting": "[3]; 60 μg mL^−1", "value": 15, "unit": "min"}, {"measurement": "survival (protection)", "setting": "E. coli ATCC 25922 [4]; 1 μg g-1 (1 mg kg-1) subcutaneously 1 h after infection", "value": 66.6, "unit": "%"}, {"measurement": "survival (protection)", "setting": "E. coli ATCC 25922 [4]; 0.25 mg kg-1 subcutaneously 1 h after infection", "value": 16.6, "unit": "%"}, {"measurement": "survival (protection)", "setting": "E. coli ATCC 25922 [4]; 0.5 mg kg-1 subcutaneously 1 h after infection", "value": 33.3, "unit": "%"}, {"measurement": "bactericidal activity", "setting": "Citrobacter freundii", "value": "significantly lower than that observed in E. coli or K. pneumoniae"}, {"measurement": "MIC", "setting": "E. coli ATCC 25922 [5]", "value": 9.375, "unit": "µg/mL"}, {"measurement": "cytotoxicity versus control (culture media)", "setting": "human HEK293 cells", "value": "not toxic"}, {"measurement": "bactericidal activity on serotype O157:H7", "setting": "[6]", "value": "excellent activity"}, {"measurement": "bactericidal activity", "setting": "Klebsiella pneumoniae; 15 μg mL^−1, 120 min", "value": "bactericidal activity"}, {"measurement": "killing of the cells present in the assay", "setting": "Klebsiella pneumoniae; 150 μg mL-1, 120 min", "value": "capable of killing all the cells present in the assay"}, {"measurement": "bactericidal activity (reduction)", "setting": "Klebsiella pneumoniae; under the tested conditions (15 or 150 μg mL^−1)", "value": "≥ 4", "unit": "logarithms"}, {"measurement": "bactericidal effect on chicken gut microbiota strains", "setting": "[7]", "value": "virtually no effect"}]}
